One assay relates to HeLa cells. Put plainly: Test of apoptosis (SR-FLICA, caspase activity) in transfected HeLa cells treated with thapsigargin. It is filed as cell-based, human. To be noted: 10 μM thapsigargin for 24 h; for potentiation of thapsigargin effect on caspase activity: HeLa cells transfected with peptide construct (fused to Cb5). The procedure: (B) Test of apoptosis (SR-FLICA) in response to 10 μM of thapsigargin for 24 h in HeLa cells transfected with the empty vector pCS2+ or the constructs coding for Nrh-WT (wild-type), Nrh-ActA, Nrh-cb5, Nrh-dTM or Nrh-dBH4 (N=3). ***, p<0.001;**, p<0.01; n.s. p>0.1 (Student t-test).
(C) Test of apoptosis (SR-FLICA) in response to 10 μM of thapsigargin for 24 h in HeLa cells transfected with the empty vector pCS2+ or the constructs coding for the peptides Nrh 1-23, Nrh 1-23 Y16F or Nrh 1-23 C20A (N=3). ***, p<0.001;**, p<0.01; n.s. p>0.1 (Student t-test).
The effects of these various proteins were observed after transfection of HeLa cells by the empty vector pCS2+ or with the constructs coding for Nrh, Nrh-ActA, Nrh-cb5, dTM or dBH4.

In assay [1] the target is T1, interaction of Bcl-2 L10/Nrh with the BD domain of the receptor IP3R1 (Homo sapiens, UniProt Q9HD36).
T1 construct: expressed in transfected cells; host or cells: HeLa
T1 sequence (Q9HD36 11-204): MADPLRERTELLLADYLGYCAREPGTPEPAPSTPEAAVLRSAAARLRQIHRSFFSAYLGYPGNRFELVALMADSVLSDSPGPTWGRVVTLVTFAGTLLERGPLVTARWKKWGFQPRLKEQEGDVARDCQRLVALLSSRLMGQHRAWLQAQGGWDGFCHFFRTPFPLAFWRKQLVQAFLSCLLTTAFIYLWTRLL
Put plainly: Immunoprecipitation (anti-HA) of the Flag-Nrh / HA-hBD interaction in HeLa cells co-transfected with peptide plasmids. The format is cell-based. To be noted: peptides Flag-tagged, fused to cytochrome b5 domain, plasmid ratio 1:2. From the text: (B) Quantification of the Nrh-IP3R1 interaction by immunoprecipitation experiments with anti-HA antibodies in HeLa cells transfected with plasmids coding for Flag-Nrh, HA-hBD and the different point mutants of the peptides Nrh 1-23 Flag-tagged with a ratio of 1:2 (N=3).
FIG. 5B presents the ability of these different peptides to inhibit the interaction of Bcl-2 L10/Nrh with the BD domain of the receptor IP3R1. This interaction is quantified by the immunoprecipitation technique, the BD domain being tagged with an HA epitope and the protein Bcl-2 L10/Nrh being tagged with a Flag epitope.
HeLa cells are transfected with plasmids coding for Flag-Nrh, HA-hBD and the different point mutants of the peptide Nrh 1-23 Flag-tagged with a ratio of 1:2, and immunoprecipitation is carried out with an anti-HA antibody.

Another assay concerns the target T2, Flag-Nrh (Bcl-2 L10) (Homo sapiens, UniProt Q9HD36).
T2 construct: expressed in transfected cells; host or cells: HeLa (cellular extracts)
T2 sequence (Q9HD36 1-204): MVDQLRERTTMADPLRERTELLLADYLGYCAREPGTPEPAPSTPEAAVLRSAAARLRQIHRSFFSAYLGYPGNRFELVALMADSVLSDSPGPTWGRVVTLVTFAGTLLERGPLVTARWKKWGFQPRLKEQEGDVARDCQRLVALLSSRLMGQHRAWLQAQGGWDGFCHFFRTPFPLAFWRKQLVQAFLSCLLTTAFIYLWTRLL
Put plainly: Streptavidin pull-down with biotin-labelled peptide, HeLa extracts expressing Flag-Nrh. To be noted: 5 μg of biotin-labelled peptide. It is filed as binding. The procedure:
(§1) (A) Streptavidin pull-down in HeLa cells transfected with either empty vector pCS2+, Flag-Nrh, HA-hBD or HA-BECN1, which cellular extracts were incubated or not with 5 μg of biotin-labelled Nrh 1-23 peptide.
(§2) (B) Streptavidin pull-down in HeLa cells transfected with either empty vector pCS2+, Flag-Nrh, or Flag-Nrz, which cellular extracts were incubated with 5 μg of biotin-labelled Nrh 1-23 peptide or Nrh 1-23 R6A Y16F double mutant peptide.
(§3) (A) HeLa cells were transfected with either empty vector pCS2+, Flag-Nrh, HA-hBD or HA-Beclin1 (referred to as HA-BECN1), a protein well known for its binding capacities to Nrh, then cellular extracts were incubated or not with 5 μg of biotin-labelled Nrh 1-23 wild-type peptide. Streptavidin is used for pulling-down the complexes comprising biotin-labelled Nrh peptide.
(§4) Streptavidin is used for pulling-down the complexes comprising biotin-labelled Nrh peptide.

The target of assay [2] is T3, HA-hBD (IP3 binding domain of IP3R1) (Homo sapiens, UniProt Q14643).
T3 construct: extending from residue 226 to residue 565 in the human protein; expressed in transfected cells; host or cells: HeLa (cellular extracts)
T3 sequence (Q14643 226-565): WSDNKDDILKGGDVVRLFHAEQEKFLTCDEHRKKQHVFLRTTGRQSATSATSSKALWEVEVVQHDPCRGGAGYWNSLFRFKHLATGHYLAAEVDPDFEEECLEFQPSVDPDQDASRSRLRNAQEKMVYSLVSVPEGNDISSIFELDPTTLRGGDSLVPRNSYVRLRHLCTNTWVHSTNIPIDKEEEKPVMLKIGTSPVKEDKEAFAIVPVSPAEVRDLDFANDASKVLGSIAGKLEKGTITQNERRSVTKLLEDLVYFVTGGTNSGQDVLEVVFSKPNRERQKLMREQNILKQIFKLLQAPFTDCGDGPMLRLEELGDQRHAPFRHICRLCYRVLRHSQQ
Put plainly: Streptavidin pull-down with biotin-labelled peptide, HeLa extracts expressing HA-hBD. To be noted: 5 μg of biotin-labelled peptide. The procedure: as §1, §3

Another assay concerns Flag-Nrz. Put plainly: Streptavidin pull-down with biotin-labelled peptide, HeLa extracts expressing Flag-Nrz. Conditions: 5 μg of biotin-labelled peptide. It is filed as binding, zebrafish. The procedure: as §2, §4
Assay [3] has as its target T4, Nrh homodimer (Flag-Nrh / HA-Nrh) (Homo sapiens, UniProt Q9HD36).
T4 construct: the ability of the whole protein Nrh (Bcl-2 L10) to dimerise
T4 sequence (Q9HD36 11-204): T1 sequence (Q9HD36 11-204)
Put plainly: Co-immunoprecipitation (anti-HA) of Flag-Nrh and HA-Nrh: Nrh homodimerisation. To be noted: incubation with the peptide. The format is binding. From the text:
Quantification of the interaction between Flag-Nrh and HA-Nrh using co-immunoprecipitation with anti-HA antibody.
FIG. 7 illustrates the quantification of the interaction between Flag-Nrh and HA-Nrh using co-immunoprecipitation with anti-HA antibody. Formation of a Nrh homodimer is observed.

Assay [4] deals with endogenous protein Bcl-2 L10/Nrh (in cells) (human) (UniProt Q9HD36). Description: proximity ligation assay of endogenous Nrh and IP3R1, MDA-MB-231 cells; as a function of the negative control.
Assay [5] addresses T5, interaction between the endogenous proteins Nrh and IP3R1 (Homo sapiens, UniProt Q9HD36).
T5 construct: endogenous in cells; host or cells: MDA-MB-231
T5 sequence (Q9HD36 11-204): T1 sequence (Q9HD36 11-204)
Description: Proximity ligation assay (PLA) of endogenous Nrh and IP3R1 in MDA-MB-231 cells. It is filed as cell-based. Conditions: for inhibition of the Nrh/IP3R1 interaction relative to the limit value: conclusion of the PLA experiment; for percentage inhibition of the Nrh/IP3R1 interaction: with 488 nm flash. The procedure: (A) Proximity ligation assay (PLA) experiments allowing for the detection of the interaction between the endogenous proteins Nrh and IP3R1 in MDA-MB-231 cells.
The MDA-MB-231 cells are incubated for 4 h with the peptide TAT Nrh-1-23 (SEQ ID NO. 4) or the control peptide TAT-Nrh 1-23 Y16F (SEQ ID NO 12, 14 and 6). After 3 washes of the cells, a 488 nm laser is used to excite the fluorophore (FITC) present in the endosomes, rupture the endosomal membrane and release the TAT-FITC peptides into the cytosol. The cells are incubated for 12 h then fixed, and the interaction between Nrh and IP3R1 is quantified by PLA using a rabbit anti-Nrh primary antibody and a mouse anti-IP3R1 primary antibody. This step is followed by incubation with a mixture of anti-rabbit and anti-mouse secondary antibodies, each coupled to a complementary nucleotide probe. A step of ligation then amplification is then carried out in the presence of fluorescent nucleotides, making it possible to amplify a specific signal in the case of spatial proximity of the probes. The fluorescence signal, in which each dot corresponds to an interaction in the cell, is recorded by means of a Nikon NiE fluorescence microscope. The images are quantified by the Image J software, and the interaction score is represented on the graph as number of dots per cell (N=3).

The target of assay [6] is endogenous protein Bcl-2 L10/Nrh (in cells) (human) (UniProt Q9HD36). Put plainly: proximity ligation assay of endogenous Nrh and IP3R1, MDA-MB-231 cells; against the vehicle control.
Assay [7] shares this target. Put plainly: proximity ligation assay of endogenous Nrh and IP3R1, MDA-MB-231 cells; against the no-flash control.
The target is the same in assay [8]. Description: cell-based or functional assay.
The target of assay [9] is T6, HA-hBD (IP3 ligand binding domain of human IP3R1 tagged with an HA epitope) (human, UniProt Q14643-2 226-565, limits assumed).
T6 construct: Expressed in HeLa cells; also called HA-hBD IP3R1; BD domain of the receptor IP3R1
T6 sequence (Q14643 other isoform, or with tags, fused parts or gaps limits assumed): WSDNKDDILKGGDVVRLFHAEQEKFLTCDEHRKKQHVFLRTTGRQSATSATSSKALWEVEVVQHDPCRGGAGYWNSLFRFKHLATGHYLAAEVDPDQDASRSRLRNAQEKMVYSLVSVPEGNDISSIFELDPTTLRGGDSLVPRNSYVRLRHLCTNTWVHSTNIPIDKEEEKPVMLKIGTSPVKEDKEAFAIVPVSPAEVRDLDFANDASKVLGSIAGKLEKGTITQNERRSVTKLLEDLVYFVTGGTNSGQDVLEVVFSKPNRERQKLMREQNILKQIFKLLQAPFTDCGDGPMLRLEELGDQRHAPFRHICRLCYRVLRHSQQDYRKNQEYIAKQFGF
Put plainly: streptavidin pull-down from extracts of transfected HeLa cells.

The mark [10] stands for this setting: 488 nm flash used to release the peptide.

Values joined by “and” are separate entries in the source; they are usually repeats but may differ in a detail not shown here. Identical values can stand only once. No end group written: not given here.

As for MADPLRERTELLLADYLGYCARE [Nrh 1-23], the “potentiation of thapsigargin effect on caspase activity” value in the assay with HeLa cells is recorded as “virtually doubled”. Also, the “ability to inhibit the Nrh/IP3R1 BD interaction (Flag-Nrh band on Western blot after anti-HA immunoprecipitation)” value in assay [1] was “dissociate the Nrh/IP3R1 interaction”. Besides, the “interaction with Nrh (pull-down)” value in the assay with Flag-Nrh (Bcl-2 L10) was “only able to interact with Nrh”. Moreover, in assay [2], the “interaction with HA-hBD (pull-down)” value is recorded as “not with HA-hBD”. Also, the “interaction with Nrz (pull-down)” value in the assay on Flag-Nrz is given as “not Nrz”. The “prevention of Nrh homodimerisation” value in [3] was “can be prevented”.

For `C/C=C(/C)C(=O)O[C@H]1C(C)=C2[C@H]([C@@H]1OC(=O)CCCCCCC)[C@@](C)(OC(C)=O)C[C@H](OC(=O)CCC)[C@@]1(O)[C@H]2OC(=O)[C@@]1(C)O` [thapsigargin, reference compound], the caspase activity entry in the assay on HeLa cells (HeLa control cells (empty vector pCS2+)) was “greatly induced”.

In the case of “peptide TAT-Nrh 1-23 (TAT-spacer-domain of binding to IP3Rs without methionine), FITC-coupled”, in [4], the percentage inhibition of the Nrh/IP3R1 interaction is 86% and 87%.

“TAT Nrh Y16F: combination of TAT (SEQ ID NO. 12), a spacer (SEQ ID NO. 14) and SEQ ID NO. 6 without the methionine; control outside the invention (RKKRRQRRRGGSGGADPLRERTELLLADFLGYCARE)”: the “PLA interaction score Nrh/IP3R1” value in assay [5] (setting [10]) is given as 65±5 dots per cell. Besides, the “inhibition of the Nrh/IP3R1 interaction relative to the limit value” in assay [5] is reported as below 30%.

Consider “Nrh 1-23 R6A Y16F: biotin-labelled Nrh 1-23 R6A Y16F double mutant peptide (MADPLAERTELLLADFLGYCARE; also: biotin-labelled (position not given here))”, for which the “interaction with Nrh (pull-down)” value in the assay with Flag-Nrh (Bcl-2 L10) was “reduced interaction with Nrh”.

Regarding “MADPLAERTELLLADYLGYCARE (Synthetic peptide Peptide R6A) [Nrh R6A, point mutant of Nrh 1-23, non-functional]”, the “ability to inhibit the Nrh/IP3R1 BD interaction (Flag-Nrh band on Western blot after anti-HA immunoprecipitation)” value in [1] is given as “still visible, albeit faintly”.

For “RKKRRQRRRGGSGGADPLRERTELLLADYLGYCARE [TAT Nrh 1-23]”, the “PLA interaction score Nrh/IP3R1” value in [5] (setting [10]) is 11±1 dots per cell; in assay [5] (in the absence of 488 nm flash (no release of the peptides into the cytosol)), 87±6 dots per cell. Besides, the “inhibition of the Nrh/IP3R1 interaction relative to the limit value” in assay [5] was “at least 30%”. The “percentage inhibition of the Nrh/IP3R1 interaction” value is 87% in [5] (negative control = TAT Nrh 1-23 without flash (87 dots per cell)) and 86% in [5] (negative control = vehicle (80 dots per cell)).

Turning to “MADPLRERTELLLAAYLGYCARE (Synthetic peptide D15A) [Nrh D15A, point mutant of Nrh 1-23, functional]”, the “ability to inhibit the Nrh/IP3R1 BD interaction (Flag-Nrh band on Western blot after anti-HA immunoprecipitation)” value in assay [1] is listed as “dissociate the Nrh/IP3R1 interaction”.

For the molecule “control peptide TAT-Nrh 1-23 Y16F, FITC-coupled”, the percentage inhibition of the Nrh/IP3R1 interaction came to 18.8% in assay [6] and 25% in assay [7].

As for “MADPLRERTELLLADFLGYCARE (Synthetic peptide Y16F) [Nrh Y16F, point mutant of Nrh 1-23, non-functional]”, the “ability to inhibit the Nrh/IP3R1 BD interaction (Flag-Nrh band on Western blot after anti-HA immunoprecipitation)” value in assay [1] was “still visible, albeit faintly”.

As for “MADPLRERTELLLADYLGYAARE (Synthetic peptide C20A) [Nrh C20A, point mutant of Nrh 1-23, functional]”, the “potentiation of thapsigargin effect on caspase activity” value with HeLa cells is “this effect is maintained”. For the same molecule, the “ability to inhibit the Nrh/IP3R1 BD interaction (Flag-Nrh band on Western blot after anti-HA immunoprecipitation)” value in assay [1] is listed as “dissociate the Nrh/IP3R1 interaction”.

Molecule “peptide Nrh 1-23 fused at the C-terminal end with the cytochrome b5 targeting domain, Flag-tagged” registered a caspase activity (SR-FLICA apoptosis test), HeLa cells, 10 µM thapsigargin for 24 h in [8] of 2 fold.

B1: biotin-labelled Nrh 1-23 wild-type peptide (peptide)
peptide: MADPLRERTELLLADYLGYCARE
modifications: also: biotin-labelled (position not given here)
notes: 3 (same without the first methionine); also called biotin-labelled Nrh 1-23 peptide
As for B1, in assay [9], the binding result is recorded as “no binding (tested: 5 µg of biotin-labelled peptide)”.

B2: Bcl-2 L10/Nrh-WT: the human Bcl-2 L10/Nrh protein in its wild-type, whole form, expressed from a transfected construct (protein, UniProt Q9HD36 1-204, looked up)
chain: T2 sequence (Q9HD36 1-204)
modifications: full-length
notes: the human Bcl-2 L10/Nrh protein in its wild-type, whole form, expressed from a transfected construct
On to B2, for which, in the assay on HeLa cells (HeLa cells overexpressing Nrh construct), the “effect on thapsigargin-induced caspase activity (apoptosis-blocking effect)” value is “reduced by half”.
